Data as given in US20100077492A1.

Target: human PC4 protein (full length wild type) (human) (UniProt P53999)
Assay: cell-based or functional assay

## purified human XPG (without HMK tag) (from UniProt P28715 1-1186) (enzyme)
  PC4 binding to a 10-nt DNA bubble substrate in an electrophoretic mobility shift assay after pre-incubation of the DNA with XPG: 44 nM
